Results published in US20220242958A1, “BISPECIFIC NANOBODIES” (Ablynx N.V., priority 2013, published 2022).
Values belong to the molecule of their own block, whether it stands above or below them.

Key:
Her3 = Her3 (Homo sapiens, UniProt P21860); conditions: read-out: affinity to Her3; cited from earlier work
EGFR = EGFR (Homo sapiens, UniProt P00533); conditions: read-out: affinity to EGFR; cited from earlier work
[1] = tested on: IL-12 dependent IFN-γ release, human T cells; test: IL-12 mediated IFN-γ release in activated human T cells; format: cell-based; conditions: 0.2 pM IL-12; 72 h; donor D839
Description: The ability of bispecific polypeptides to simultaneously engage both targets on the same cell was analysed in a IL-12 dependent functional assay, inhibition of IL-12 mediated IFN-γ release in activated human T cells. Since the functional blockade is only mediated via IL12R, avidity by the simultaneous binding of the CD4 Nanobody is expected to translate into increased potency of the bispecific in inhibition of cytokine release.
Isolated human T cells from buffycoats were activated for four days with Dynabeads® Human T-Activator CD3/CD28 (Gibco—Life Technologies #11131D) and one day with IL-2. To differentiate into Th1 subtype, T cells were cultured in presence of IL-12 with co-stimulation provided by plate coated CD3 at 0.5 μg/ml (eBioscience #16-0037-85) and anti-CD28 (1 μg/ml PeliCluster, Sanquin #M1650) in solution.
Dose-dependent blockade of IL-12 mediated IFNγ release was assessed for the bispecific IL-12Rβ2-CD4 and IL-12Rβ1-CD4 polypeptides in both orientations, and the corresponding monovalent Nanobodies. The IL-23R-CD4 bispecific polypeptides served as negative controls. Representative graphs of the bispecific IL12Rβ1-CD4, IL12Rβ2-CD4 and IL23R-CD4 polypeptides are shown in FIG. 3.9, and IC50 values in Table 3.2. […] Although bispecific constructs in both orientations show potency enhancements, the IL12Rβ2 Nanobody in the N-terminal position from CD4 gave stronger enhancements.

activated human T cells = test: Flow cytometry binding to activated human T cells (TH1); conditions: IL12Rb1 and IL12Rb2 Nanobodies on TH1 activated T cells
Description: Dose-dependent binding of monovalent Nanobodies to their cell-expressed receptor in the context of the heterodimeric complex was determined by flow cytometry on activated human T cells from distinct healthy donors.
Human T cells were isolated using the Human T Cell Enrichment Cocktail (RosetteSep #15061) and pre-activated for four days with Dynabeads® Human T-Activator CD3/CD28 (Gibco—Life Technologies #11131D) and one day with recombinant human IL-2 (Life Technologies—Gibco #PHC0027) to induce TH1 differentiation. Routinely, T cell markers surface expression and activation state was checked by FACS using anti-CD3 PE (eBioscience #12-0037-73), anti-CD8-PE (BD Bioscience #555367), anti-CD45RO-PE (BD Bioscience #555493), anti-CD45RA-APC (BD Bioscience #550855) anti-CD25-PE (BD Bioscience #557138) and anti-CD69-PE (BD Bioscience #557050). IL12R surface expression was confirmed by FACS using IL12Rβ1 antibody (R&D MAB839), followed by goat anti-mouse PE (Jackson Immuno Research 115-115-164). The expression of IL23R was checked by polyclonal goat anti-IL-23R (R&D AF1400). CD4 surface expression was confirmed by FACS using APC-labelled anti-CD4 (BD Bioscience #345771). […]
Dose-dependent binding of monovalent Nanobodies was assessed by flow cytometry on the respective Th1 or Th17 enriched T cell populations. […] The cells were then analysed via a BD FACSArray.

[2] = biological target: T1, human IL12Rβ1 extracellular domain Fc-fusion (Homo sapiens, UniProt P42701); test: SPR (Biacore T100) on IL12Rβ1-Fc; format: binding
T1 construct: Fc-fusions of human IL12Rβ1, IL12Rβ2 and IL-23R extracellular domains; purchased R&D Systems #839-B1
Description: (§1) The precise binding affinities of the purified Nanobodies were determined in a multi-cycle kinetic analysis using Surface Plasmon Resonance analysis (Biacore T100) on Fc-fusions of human IL12Rβ1, IL12Rβ2 and IL-23R extracellular domains (R&D Systems, #839-B1, #1959-B2, #1400-IR). Sensorchips CM5 were immobilized with anti-hIgG antibody (GE Healthcare, BR-1008-39), after which receptors were captured at 5 μg/ml protein and contact time of 120 seconds. Running buffer used was HBS-EP+ (GE Healthcare, BR-1006-69) at 25° C., with a flow-rate of […]. For immobilization by amine coupling, EDC/NHS was used for activation and ethanolamine HCl for deactivation (Biacore, amine coupling kit). Nanobodies were evaluated at a concentration range between 1.37 nM and 3 μM. Nanobodies were allowed to associate for 2 min and to dissociate for 15 min at a flow rate of […]. In between injections, the surfaces were regenerated with a 3 min pulse of 3M MgCl2 and 2 min stabilization period. Evaluation of the association/dissociation data was performed by fitting a 1:1 interaction model (Langmuir binding model) by Biacore TWO software v2.0.3.

[3] = tested on: IL-23 dependent IL-17 release, human PBMCs; test: IL-23 dependent IL-17 release in human PBMCs; format: cell-based; conditions: 9 days; donor D840
Description: In this assay set-up human PBMCs were cultured in the presence of soluble IL23 to allow differentiation of T cells towards the Th17 phenotype. Cells were seeded onto OKT-3 (eBioscience #16-0037-85) coated plates in the presence of recombinant human IL-23 (eBioscience #14-8239) and PeliCluster CD28 (Sanquin #M1650) in solution. Cytokine (IL17) release in the presence or absence of the respectively Nanobodies was determined by ELISA after an incubation period of 9 days.
Dose-dependent inhibition of the panel of bispecific IL23R-CD4 and IL12Rβ1-CD4 polypeptides was assessed in comparison to the respective monovalent Nanobodies, with in this case the IL12Rβ1-CD4 specific polypeptides serving as negative controls. […] There is a preference for the IL12Rβ1 building block in the C-terminal position from CD4 in this assay. There is a clear difference in potency between the two IL12Rβ1 family members, corresponding to the different binding kinetics and affinities, and this difference is preserved in the potency of the bispecific constructs.

[4] = biological target: T2, human IL-23R extracellular domain Fc-fusion (Homo sapiens, UniProt Q5VWK5); test: SPR (Biacore T100) on IL-23R-Fc; format: binding
T2 construct: Fc-fusions of human IL12Rβ1, IL12Rβ2 and IL-23R extracellular domains; purchased R&D Systems #1400-IR
T2 sequence (Q5VWK5 24-355 limits assumed): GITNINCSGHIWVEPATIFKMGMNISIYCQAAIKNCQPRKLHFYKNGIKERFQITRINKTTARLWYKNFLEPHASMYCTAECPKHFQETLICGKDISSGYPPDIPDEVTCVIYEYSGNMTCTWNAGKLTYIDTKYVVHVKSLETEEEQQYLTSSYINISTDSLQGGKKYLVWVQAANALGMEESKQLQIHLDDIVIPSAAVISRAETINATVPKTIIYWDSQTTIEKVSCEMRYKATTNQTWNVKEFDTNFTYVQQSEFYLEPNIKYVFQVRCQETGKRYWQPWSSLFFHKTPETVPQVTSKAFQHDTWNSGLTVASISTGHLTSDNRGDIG
Description: as §1

[5] = biological target: T3, IL23R on Th17 differentiated T cells (Homo sapiens, UniProt Q5VWK5); test: Flow cytometry binding to T cells differentiated towards Th17 phenotype; conditions: IL23R Nanobodies on Th17 differentiated cells
T3 construct: endogenous in cells; host or cells: T cells within human PBMCs differentiated towards Th17
T3 sequence (Q5VWK5 24-629): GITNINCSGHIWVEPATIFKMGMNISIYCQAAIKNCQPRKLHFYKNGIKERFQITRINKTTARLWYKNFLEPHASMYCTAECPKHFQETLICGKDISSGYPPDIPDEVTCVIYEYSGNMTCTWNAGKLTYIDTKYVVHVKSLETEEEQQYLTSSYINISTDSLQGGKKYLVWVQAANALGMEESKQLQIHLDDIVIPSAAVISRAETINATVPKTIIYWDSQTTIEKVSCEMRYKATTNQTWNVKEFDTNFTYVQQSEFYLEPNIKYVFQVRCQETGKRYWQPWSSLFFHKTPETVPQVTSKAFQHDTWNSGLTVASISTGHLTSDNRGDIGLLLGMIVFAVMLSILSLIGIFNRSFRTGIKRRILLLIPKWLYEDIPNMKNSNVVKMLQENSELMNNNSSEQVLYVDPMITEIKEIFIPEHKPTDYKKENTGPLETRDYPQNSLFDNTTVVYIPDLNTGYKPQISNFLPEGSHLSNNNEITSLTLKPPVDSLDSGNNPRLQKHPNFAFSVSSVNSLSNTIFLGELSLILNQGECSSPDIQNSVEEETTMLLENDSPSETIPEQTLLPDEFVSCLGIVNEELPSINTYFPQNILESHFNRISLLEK
Description: As the expression of IL23R was very low in the T cell pool, the binding of monovalent IL23R Nanobodies was assessed on cells that were differentiated towards the Th17 phenotype by the incubation of PBMCs in the presence of a cytokine cocktail and IL-23, recombinant IL-6 (eBioscience #34-8069-82), recombinant TGF-b1 (R&D #240-B), anti-human IL-4 antibody(BD#554481), recombinant IL-1b (BD#554602)) and recombinant Human IL-23 (R&D Systems #219-IL-005) with co-stimulation of plate coated OKT-3 (eBioscience #16-0037-85), PeliCluster CD28 (Sanquin #M1650). Following this procedure, low but detectable IL23R expression levels were obtained. Optimization in the Th17 differentiation protocol could further increase these expression levels.
Dose-dependent binding of monovalent Nanobodies was assessed by flow cytometry on the respective Th1 or Th17 enriched T cell populations. Serial dilutions of antibody or Nanobodies were allowed to associate for 30 minutes at 4° C. in FACS buffer (PBS supplemented with 10% FBS and 0.05% azide). Cells were washed by centrifugation and probed with anti-FLAG antibodies (Sigma F1804) for 30 minutes at 4° C., to detect bound Nanobody. Detection was done with Goat anti-Mouse IgG-PE (Jackson ImmunoResearch #115-116-071) for 30 minutes at 4° C. […] The cells were then analysed via a BD FACSArray.

B1: MEHD7945A: two-in-one Mab with specificity for EGFR and Her3 (antibody, chains of the INN, looked up, V domains shown)
VH: EVQLVESGGGLVQPGGSLRLSCAASGFTLSGDWIHWVRQAPGKGLEWVGEISAAGGYTDYADSVKGRFTISADTSKNTAYLQMNSLRAEDTAVYYCARESRVSFEAAMDYWGQGTLVTVSS
VL: DIQMTQSPSSLSASVGDRVTITCRASQNIATDVAWYQQKPGKAPKLLIYSASFLYSGVPSRFSGSGSGTDFTLTISSLQPEDFATYYCQQSEPEPYTFGQGTKVEIK
Kd (Her3): 0.39 nM
Kd (EGFR): 1.9 nM

IFNγ release T cells D839 IC50 (M) [1]: no fit
Binding T cells (FACS) EC50 (M) (activated human T cells): No fit
Binding kinetics (SPR) ka (1/Ms), IL12Rβ1 [2]: 720000 M⁻¹ s⁻¹
Binding kinetics (SPR) kd (1/s), IL12Rβ1 [2]: 0.017 s⁻¹
B2: IL12Rb1#31: IL-12Rβ1 specific ligand competing Nanobody (protein)
VHH: EVQLVESGGGLVQTGGSLRLSCAASGRTPSIIAMGWFRQTPGKEREFVGEIILSKGFTYYADSVKGRFTISRANAKNTITMYLQMNSLKSEDTAVYYCAARQNWSGNPTRTNEYEYWGQGTLVTVSS

Binding kinetics (SPR) ka (1/Ms), IL-23R [4]: 3e+06 M⁻¹ s⁻¹
Binding kinetics (SPR) kd (1/s), IL-23R [4]: 0.23 s⁻¹
Binding T cells (FACS) EC50 (M) [5]: No fit
B3: IL23R#20: IL-23R specific ligand competing Nanobody (protein)
VHH: EVQLVESGGGLVQAGGSLRLSCAASGRTFSSYAMGWFRQAPGKDREFVAAISWIGESTYYADSVKGRFTISRDNAKNTVYLRMNSLKPEDTAVYYCAADLYYTAYVAAADEYDYWGQGTLVTVSS
IL-17 release PBMC D840 IC50 (M) [3]: no fit
